Experimental data taken from US20180196057A1 (VENTANA MEDICAL SYSTEMS, published 2018).
Positions count from the first letter of the chain named.

T1: human pro-epiregulin (human, UniProt O14944 30-169)
T1 construct: Endogenous protein in FFPE tissue sections, xenografts and cell lysates (IHC, Western blot); also called EREG; pro-EREG
T1 sequence: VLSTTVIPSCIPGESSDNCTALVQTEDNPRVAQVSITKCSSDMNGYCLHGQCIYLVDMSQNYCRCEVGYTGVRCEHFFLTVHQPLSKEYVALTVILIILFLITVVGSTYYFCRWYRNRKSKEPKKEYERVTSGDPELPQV

T2: human amphiregulin (human, UniProt P15514 20-252)
T2 construct: Endogenous protein in FFPE tissue sections and cell lysates (IHC, Western blot); also called AREG; pro-AREG
T2 sequence: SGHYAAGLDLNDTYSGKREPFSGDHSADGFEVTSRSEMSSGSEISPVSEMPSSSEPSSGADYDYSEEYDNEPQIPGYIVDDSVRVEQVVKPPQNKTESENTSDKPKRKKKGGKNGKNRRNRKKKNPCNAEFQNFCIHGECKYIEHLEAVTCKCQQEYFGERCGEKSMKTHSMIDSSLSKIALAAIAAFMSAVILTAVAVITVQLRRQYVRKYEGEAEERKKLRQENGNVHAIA

B1: anti-human pro-epiregulin monoclonal antibody J89H12L3 (antibody, V domains shown)
VH: KSVEESGGRLVTPGTPLTLTCTVSGIDLSTFAMAWVRQAPGKGLEYIGFISLSDATYYATWAKGRFTISKSSSTTVDLKIITPTAEDTATYFCARVVGDSSGYPNTFHPWGPGTLVTVSS
VL: QVLTQTPSPVSAAVGGTVTINCQASQSIHNSDFLAWYQQKPGQPPKLLIYRASKLPSGVPSRFKGSGSGTQFTLTISDLECDDAATYYCQGTYYSGGWYFTFGGGTEVVVK
notes: also called clone J89H12L3
B2: anti-human pro-epiregulin monoclonal antibody J89H12L8 (antibody, V domains shown)
VH: B1 VH
VL: B1 VL with S27N
notes: also called clone J89H12L8
B3: anti-human pro-epiregulin monoclonal antibody J5H1L1 (antibody, V domains shown)
VH: QSVEESGGRLVTPGTPLTLTCTVSGFSLSRYGMSWVRQAPGKGLEYIGSINRTAYTYYATWAKGRFTISRTSTTVDLRMTSLTTEDTATYFCARGLTYGGSDYDYDDALWGPGTLVTVSS
VL: QVLTQTPSSVSAAVGGTVTINCQASQSVYKNKNLAWYQQKPGQPPKLLIYRASTLASGVSSRFKGSGSGTQFTLTISGVQCADAATYYCQGEFSCSTFDCILFGGGTEMVVK
notes: also called clone J5H1L1; EREG J5H1L1
B4: anti-human amphiregulin monoclonal antibody J111H1L10 (antibody, V domains shown)
VH: QSLEESRGGLIKPGGTLTLTCTVSGFSLSSYAISWVRQAPGNGLEWIGFIVGSSGSAYYASWAKSRSTITRDTNLNTVTLKMTSLTAADTATYFCAKGLYSGGNYWGPGTLVTVSS
VL: AVLTQTPSPVSAAVGGTVSISCQSSQSVDENNYLSWFQQKPGQPPKLLIYRASTLESGVPSRFSGSGSGTQFTLTVSGVQCDDAATYYCLGGYSGYSDDGFGGGTEVVVK
notes: also called clone J111H1L10; AREG J111H1L10

Experiments:
human pro-epiregulin [1] = biological target: T1, human pro-epiregulin; experiment: recombinant antibodies screened for binding to human pro-epiregulin by IHC
human pro-epiregulin [2] = biological target: T1, human pro-epiregulin; experiment: IHC on FFPE carcinoma cell lines and colorectal cancer cases (OptiView DAB)
Method: (§1) All assay optimization were performed on human non-small cell lung carcinoma (NSCLC) (NCI-H1975; NCI-H1650; H460; NCI-HCC827; H2228; Calu-3; H820), breast (MCF7; A431) carcinoma cell lines and colorectal cancer tissues. Stained slides for the tested conditions were evaluated by a trained pathologist and the optimal staining conditions were determined based on the staining intensity, percentage of positive cells and the level of non-specific (background) staining.
(§2) The assay performance of EREG/AREG IHC assays were evaluated on 8 colorectal cancer cases kindly provided by Dr. Paul Waring. Specimens were immunohistochemically stained for EREG expression with clone J5H1L1 and for AREG expression with J111H1L10 on a VENTANA BenchMark XT IHC/ISH instrument.

human amphiregulin = biological target: T2, human amphiregulin; experiment: as above
Method: as §1, §2

Row | Binder | binding result (human pro-epiregulin [1]) | also measured
1 | B1 | binds | 
2 | B2 | binds | 
3 | B3 |  | binding result (human pro-epiregulin [2]): binds
4 | B4 |  | binding result (human amphiregulin): binds
